T1: Recombinant human leptin receptor-Fc chimera (human, UniProt P48357 22-839)
T1 sequence (looked up): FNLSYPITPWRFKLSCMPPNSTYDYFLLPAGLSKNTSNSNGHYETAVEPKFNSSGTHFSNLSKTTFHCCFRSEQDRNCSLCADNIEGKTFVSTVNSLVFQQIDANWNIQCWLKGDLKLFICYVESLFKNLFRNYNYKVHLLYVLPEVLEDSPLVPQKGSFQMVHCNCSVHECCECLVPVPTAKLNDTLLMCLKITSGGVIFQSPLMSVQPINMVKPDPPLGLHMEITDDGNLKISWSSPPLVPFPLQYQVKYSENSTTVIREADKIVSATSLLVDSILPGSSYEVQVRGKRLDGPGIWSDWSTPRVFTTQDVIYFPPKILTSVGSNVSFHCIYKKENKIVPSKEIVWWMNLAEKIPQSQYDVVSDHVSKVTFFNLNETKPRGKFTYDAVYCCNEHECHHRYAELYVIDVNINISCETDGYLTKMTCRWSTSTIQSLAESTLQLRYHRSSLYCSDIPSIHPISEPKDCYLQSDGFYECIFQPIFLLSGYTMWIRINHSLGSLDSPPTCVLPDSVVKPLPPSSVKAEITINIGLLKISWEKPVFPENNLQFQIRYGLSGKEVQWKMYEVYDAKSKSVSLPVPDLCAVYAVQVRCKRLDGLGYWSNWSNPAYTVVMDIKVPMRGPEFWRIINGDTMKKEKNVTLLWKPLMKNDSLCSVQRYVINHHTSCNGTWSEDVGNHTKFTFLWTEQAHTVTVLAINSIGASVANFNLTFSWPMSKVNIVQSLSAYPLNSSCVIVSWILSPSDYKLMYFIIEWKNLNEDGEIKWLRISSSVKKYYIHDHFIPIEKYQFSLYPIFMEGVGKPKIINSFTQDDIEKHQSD

B1: Recombinant mouse leptin (ligand, UniProt P41160 22-167, looked up)
chain: VPIQKVQDDTKTLIKTIVTRINDISHTQSVSAKQRVTGLDFIPGLHPILSLSKMDQTLAVYQQVLTSLPSQNVLQIANDLENLRDLLHLLAFSKSCSLPQTSGLQKPESLDGVLEASLYSTEVVALSRLQGSLQDILQQLDVSPEC
B2: Leptin N-terminal conjugate with Pluronic P85 (LepNP85), 1:1 conjugate (ligand, mouse, UniProt P41160 22-167, looked up)
chain: B1 chain
modifications: one chain of Pluronic P85 on the N-terminal amine (reductive amination, secondary amine)
B3: Leptin N-terminal conjugate with poly(ethylene glycol) (LepNPEG5K), 1:1 conjugate (ligand, mouse, UniProt P41160 22-167, looked up)
chain: B1 chain
modifications: one chain of PEG (average molecular mass 5000 Da) on the N-terminal amine (reductive amination)

How the values were obtained:
[1] = target: leptin receptor (Mus musculus) (UniProt P48356); assay: SPR; conditions: cited from earlier work
Chain of leptin receptor (Mus musculus) (P48356 22-839): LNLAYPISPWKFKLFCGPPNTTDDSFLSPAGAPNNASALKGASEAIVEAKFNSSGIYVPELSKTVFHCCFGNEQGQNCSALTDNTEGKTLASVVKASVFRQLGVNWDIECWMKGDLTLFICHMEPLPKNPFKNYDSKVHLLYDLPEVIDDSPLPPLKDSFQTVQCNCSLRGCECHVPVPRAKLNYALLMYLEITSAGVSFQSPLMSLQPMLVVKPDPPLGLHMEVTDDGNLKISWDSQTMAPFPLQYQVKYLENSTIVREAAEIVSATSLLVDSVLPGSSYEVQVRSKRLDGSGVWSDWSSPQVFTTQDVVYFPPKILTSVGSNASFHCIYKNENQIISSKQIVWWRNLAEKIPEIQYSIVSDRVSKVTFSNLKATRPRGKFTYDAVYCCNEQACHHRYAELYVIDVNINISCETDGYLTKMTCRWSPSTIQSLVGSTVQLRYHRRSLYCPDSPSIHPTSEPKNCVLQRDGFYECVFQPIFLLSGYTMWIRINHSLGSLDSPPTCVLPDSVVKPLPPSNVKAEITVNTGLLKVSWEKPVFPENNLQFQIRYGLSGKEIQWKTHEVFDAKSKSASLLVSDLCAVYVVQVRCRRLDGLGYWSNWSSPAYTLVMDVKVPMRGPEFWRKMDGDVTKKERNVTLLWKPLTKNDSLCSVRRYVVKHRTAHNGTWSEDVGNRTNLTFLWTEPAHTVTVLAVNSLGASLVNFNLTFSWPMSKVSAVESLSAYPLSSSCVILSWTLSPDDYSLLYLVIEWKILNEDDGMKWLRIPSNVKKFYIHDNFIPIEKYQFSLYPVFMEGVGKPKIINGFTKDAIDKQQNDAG

[2] = target: T1, Recombinant human leptin receptor-Fc …; assay: SPR

Molecule | Kd [1] [nM] | Kd [2] [nM]
leptin (from UniProt P41160) | 0.12 | 
B1 |  | 0.089
B2 |  | 0.2
B3 |  | 0.28

Source: PMC5603367 (Journal of controlled release : official journal of the …, 2017)
